Laboratory results from paper doi:10.1101/2024.10.21.619555 (bioRxiv, 2024).
Each block holds one binder with its values, some of them ahead of it.

Tests used:
[1] = biological target: the molecule itself; assay: SEC
[2] = biological target: recombinant RBP4 (UniProt P02753 19-201); assay: cross-linking
[3] = biological target: the molecule itself; assay: single-molecule dual-color photobleaching
[4] = biological target: the molecule itself; assay: single-receptor tracking
[5] = biological target: the molecule itself; assay: single-molecule photobleaching

stoichiometry N [2]: 1
B1: recombinant DR6 ECD (domain or fragment, UniProt O75509 42-349, looked up)
chain: QPEQKASNLIGTYRHVDRATGQVLTCDKCPAGTYVSEHCTNTSLRVCSSCPVGTFTRHENGIEKCHDCSQPCPWPMIEKLPCAALTDRECTCPPGMFQSNATCAPHTVCPVGWGVRKKGTETEDVRCKQCARGTFSDVPSSVMKCKAYTDCLSQNLVVIKPGTKETDNVCGTLPSFSSSTSPSPGTAIFPRPEHMETHEVPSSTYVPKGMNSTESNSSASVRPKVLSSIQEGTVPDNTSSARGKEDVNKTLPNLQVVNHQQGPHHRHILKLLPSMEATGGEKSSTPIKGPKRGHPRQNLHKHFDINEH
binding result [1]: binds

B2: DR6 ECD-Halo (domain or fragment, UniProt O75509 42-349, looked up)
chain: QPEQKASNLIGTYRHVDRATGQVLTCDKCPAGTYVSEHCTNTSLRVCSSCPVGTFTRHENGIEKCHDCSQPCPWPMIEKLPCAALTDRECTCPPGMFQSNATCAPHTVCPVGWGVRKKGTETEDVRCKQCARGTFSDVPSSVMKCKAYTDCLSQNLVVIKPGTKETDNVCGTLPSFSSSTSPSPGTAIFPRPEHMETHEVPSSTYVPKGMNSTESNSSASVRPKVLSSIQEGTVPDNTSSARGKEDVNKTLPNLQVVNHQQGPHHRHILKLLPSMEATGGEKSSTPIKGPKRGHPRQNLHKHFDINEH
modifications: Alexa Fluor 660 label
stoichiometry N [3]: 2

B3: quantum dot-labeled DR6, wild type (receptor, UniProt O75509 42-655, looked up)
chain: QPEQKASNLIGTYRHVDRATGQVLTCDKCPAGTYVSEHCTNTSLRVCSSCPVGTFTRHENGIEKCHDCSQPCPWPMIEKLPCAALTDRECTCPPGMFQSNATCAPHTVCPVGWGVRKKGTETEDVRCKQCARGTFSDVPSSVMKCKAYTDCLSQNLVVIKPGTKETDNVCGTLPSFSSSTSPSPGTAIFPRPEHMETHEVPSSTYVPKGMNSTESNSSASVRPKVLSSIQEGTVPDNTSSARGKEDVNKTLPNLQVVNHQQGPHHRHILKLLPSMEATGGEKSSTPIKGPKRGHPRQNLHKHFDINEHLPWMIVLFLLLVLVVIVVCSIRKSSRTLKKGPRQDPSAIVEKAGLKKSMTPTQNREKWIYYCNGHGIDILKLVAAQVGSQWKDIYQFLCNASEREVAAFSNGYTADHERAYAALQHWTIRGPEASLAQLISALRQHRRNDVVEKIRGLMEDTTQLETDKLALPMSPSPLSPSPIPSPNAKLENSALLTVEPSPQDKNKGFFVDESEPLLRCDSTSSGSSALSRNGSFITKEKKDTVLRQVRLDPCDLQPIFDDMLHFLNPEELRVIEEIPQAEDKLDRLFEIIGVKSQEASQTLLDSVYSHLPDLL
modifications: quantum dot label
fold lower turnover into the monomeric state than DR6 ΔECD [4]: 2.1 fold
stoichiometry N [4]: 2

B4: SNAP-DR6 (receptor, UniProt O75509 42-655, looked up)
chain: QPEQKASNLIGTYRHVDRATGQVLTCDKCPAGTYVSEHCTNTSLRVCSSCPVGTFTRHENGIEKCHDCSQPCPWPMIEKLPCAALTDRECTCPPGMFQSNATCAPHTVCPVGWGVRKKGTETEDVRCKQCARGTFSDVPSSVMKCKAYTDCLSQNLVVIKPGTKETDNVCGTLPSFSSSTSPSPGTAIFPRPEHMETHEVPSSTYVPKGMNSTESNSSASVRPKVLSSIQEGTVPDNTSSARGKEDVNKTLPNLQVVNHQQGPHHRHILKLLPSMEATGGEKSSTPIKGPKRGHPRQNLHKHFDINEHLPWMIVLFLLLVLVVIVVCSIRKSSRTLKKGPRQDPSAIVEKAGLKKSMTPTQNREKWIYYCNGHGIDILKLVAAQVGSQWKDIYQFLCNASEREVAAFSNGYTADHERAYAALQHWTIRGPEASLAQLISALRQHRRNDVVEKIRGLMEDTTQLETDKLALPMSPSPLSPSPIPSPNAKLENSALLTVEPSPQDKNKGFFVDESEPLLRCDSTSSGSSALSRNGSFITKEKKDTVLRQVRLDPCDLQPIFDDMLHFLNPEELRVIEEIPQAEDKLDRLFEIIGVKSQEASQTLLDSVYSHLPDLL
modifications: SNAP-Surface Alexa Fluor 488 label
stoichiometry N [5]: 2
